Results from article PMC10010325.

What was measured:
[1] = biological target: human CLDN18.2 (Claudin18.2), P56856-2; assay: not named in legend (MFI read-out, antibody titration on CLDN18.2); conditions: value read at the highest antibody concentration, log10(µg/mL) about 1.5; read off a plot
[2] = biological target: Fcγ receptor type IIIA (CD16A), low affinity F158 (UniProt P08637); assay: not named in legend (luminescence read-out, antibody titration on CD16A F158); conditions: value read at the highest antibody concentration, log10(µg/mL) about -1; parent: est. 4400; read off a plot
Chain of UniProt P08637 (P08637 17-254): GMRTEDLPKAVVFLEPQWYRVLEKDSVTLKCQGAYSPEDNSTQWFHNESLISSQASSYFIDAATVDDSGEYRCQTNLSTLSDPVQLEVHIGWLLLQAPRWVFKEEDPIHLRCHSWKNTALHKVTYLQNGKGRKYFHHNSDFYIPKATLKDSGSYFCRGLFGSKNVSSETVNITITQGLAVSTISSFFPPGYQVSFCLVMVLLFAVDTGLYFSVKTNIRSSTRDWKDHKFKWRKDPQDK

response [1]: 35000 MFI | response [2]: 5000 luminescence
Substance: ZL-1211 wild-type (WT) Fc Fc mutations for enhanced ADCC (substitutions not printed)
